Test results: a protein production outcome set (Wang et al. 2014)

Test: label from the status in PepcDB records

With “MKMKHAFGPIILACVLFFIIILIPSKSLVSLISDKKVEDAATSLQKEKLQSVFLQQKMLENSQYLPMYGSSEFLRMDAYHPSNYFKVNPAGFTPFLIGTGGTQSLAHILNMTSTMDELEGKKVVFVLSPQWFTKTGVSQGDFTNNFSKQQAYHFIFNDKINPEMKKQIAKRLLDYKVVQEDDILKNSLEGIVYNDSKHNIKAGLVKPLAYMHRNILDHRDLFNSLFKIEPMKEKTNIGLRSISWEDARKHAEQEGKAESTTNTFGIENPYYHKNNLKKKLKGLKNFRANETYDESPEYDDLQIILELFKEKNVKPLFISVPVNGPWYDYTGFPKERREVYYKKVREQVEKAGYPVIDFSGHEYDKYFLKDTIHLGWKGWIYFDEAVQKFYSEKLEHHHHHH” the protein production was “not failed”.

For “MFKVPKQSYTAEFKAAAVQRVKDGQGVGAVARELSVSEQTLRNWMKAEQAGKLGGAGAKVVTPEQMELSRLRAENKRLQMELEIAKKAAAYFAKDLL”, the protein production was “failed”.

With “MGRLSGKTILVTGAASGIGRAALDLFAREGASLVAVDREERLLAEAVAALEAEAIAVVADVSDPKAVEAVFAEALEEFGRLHGVAHFAGVAHSALSWNLPLEAWEKVLRVNLTGSFLVARKAGEVLEEGGSLVLTGSVAGLGAFGLAHYAAGKLGVVGLARTLALELARKGVRVNVLLPGLIQTPMTAGLPPWAWEQEVGASPLGRAGRPEEVAQAALFLLSEESAYITGQALYVDGGRSIVGPPGLPPGFGPKGGERHAHVL” the protein production was “not failed”.

In the case of “MKSGIGVGLKKEHLKIQINNSGVLTITGGCPVDQTKTIRFMKETKVAKDCKRNEIRAKFSKGVLYVTMPKTIPIAAGLSVSLKGATPQHQTPKTDEGMRNVANCSSEFYSKFGSLKQRLWRKTVVEGVAAVVVVAAAVLGVVKAYQYFMASPV”, the protein production is reported as “failed”.

In the case of “MTIFYYSFIILALLACLTVSFRIKKQQYLILYLFVIVLLSLLAGLRYDNADYENYLEIFKNPWEVSPDKGFSAFVLIVRWFTTSPIYMFLPVAIIAVSLNISSYRKYSPYLFVSVLFYFVHSFLLKEYVQIRAGLSCAICLYAIRYIEYKSLWKYIACMVIAMSIHMSSIIFFPMFWVYYFMKNKSNSCLMYFLLLSFIIGTLYPFGQVIKAYVPFLDETSRIATYANWDQFNNEIGILTNFTTLKQIILCVLCYIYWTRLKEVISCFSVLYLAYVLSTCWLMLFNDFVIIGARMATFLSVGEPIFFAGFLCLFNKQSRILVTLFFIIISCIIMDVNLHTKNLGEFKLYPLTSLF”, the protein production is reported as “failed”.

In the case of “MGFLVPSEITVSEFLLDFLNKYSENISLATYNNYVSICKNYINPSIGKYKIQDLHPVHIQNYIDKLSYKLNPQSIKIHINILKLAIKRAYRLKLIKENVMDSIKAPLEHHHHHH”, the protein production is reported as “failed”.

For “MIIMLSEYLEEFKEYLERFKNIDINFSDVLKMSKKFIIWRLKQIFGDSSTIFTNISSEITIFDKIFQMIDYDIDGEVEKRLPKDESRFMIGVRREKEIEIKKEIITNLLDFLLIILLSHTPYFNAFVRKYAEIKKIKVIKKLPNKISVWEFIKIASRSRINDLHLERLDLENGFVDITKIKEIFAKEIIRVELMKLGENIKKRKLPDDSVVKELLNEISDYLKDKVKYEQISGIKALNYKGNIPLEWHPPCIRGILNDILSGGSPSHYARRSFVVYWFCAKFNPNLRPLDKNGNLVNVSATDIASEEEIERFIDELIEMLFKNVEDFDEKKTRYYIMHNIGYKVGHGRLTHCEYCKNWQDDGGKGLSYYCKPDELCKKKFIIHPLDYLCYNINKHLKKERFKKIKKEDKNGDNKLEHHHHHH”, the protein production was “not failed”.

In the case of “MIEVAEIIAREIRRGKIVEIGVGFYLEVAKRLRESGIDILVVDINEKAINYARKQGIKGVVDDIFNPTLGIYKDAKAIYSIRPAPEMMKPLLDLARKLKIPLYIVPLTGDRTPNGMKLINYKGIPIYKWEP”, the protein production is reported as “not failed”.

For “MDWIESVKSYIKVVEEGSFNAAAYQLNTSGSAISKRINWLEERVGVQLLTRTTRSVHQTEAGLLFYQRARLQLDQWQHLVDETRAINQTPAGLLKIGATLAVGSKFIIKYLDEFLATYPKIKVQLITTLPGQVPEHNVDVFISRELEQLNTFSYKATHLFEHHSGFFASKDYLDKYGTPNNINELKAHNMLIWGERPIKEIKLTNNKRVTLRGNFATTNPEALFHAAKRGMGILLTSQQMVIDDLQSGALVPILPEITTDHTRVNAYYPTLDYEHTRTQLFIKYLKTKLS”, the protein production was “failed”.

In the case of “MAGQSDRKAALLDQVARVGKALANGRRLQILDLLAQGERAVEAIATATGMNLTTASANLQALKSGGLVEARREGTRQYYRIAGEDVARLFALVQVVADEHLADVAVAAADVLGSPEDAITRAELLRRREAGEVTLVDVRPHEEYQAGHIPGAINIPIAELADRLAELAGDRDIVAYCRGAYCVMAPDAVRIARDAGREVKRLDDGMLEWRLAGLPVDEGAPVGHGD”, the protein production is reported as “failed”.

In the case of “MAALRYAGLDDTDSEDELPPGWEERTTKDGWVYYANHTEEKTQWEHPKTGKRKRVAGDLPYGWEQETDENGQVFFVDHINKRTTYLDPRLAFTVDDNPTKPTTRQRYDGSTTAMEILQGRDFTGKVVVVTGANSGIGFETAKSFALHGAHVILACRNMARASEAVSRILEEWQQGAATTVYCAAVPELEGLGGMYFNNCCRCMPSPEAQSEETARTLWALSERLIQERLGSQSG”, the protein production is reported as “not failed”.

For “MKNPDYEPSKPHHTPDGFRNRYPHAPRDSNGSAWKWMRERRRLGLPKPPTADLSCVPPDLAAIRRPSAVPQVTWIGHETLLLQIDGLNVLTDPVFGERASPLPFAGPRRHQPPGLSLAQLPHIDLVLLSHNHYDHLCRASVRALMRQPGGAPMFFVPLGIDRWFKRHVRGTRLSGEHVNVRAFDWDTEARFGPFSVHFCAVQHWSARGLYDRNRTLWGSWALLHPQLRFWFSGDLGYSQDTRDIGARFGHFDVAAIAVGAYEPRWFMKTQHIDPAEAVQVMQDIGARHAVGIHWGTFPLTDEPLDQPIADLANALRARDIDAERFVLFRHGETRVWDAQAARLLTPAEQQKARPRVDSLAAQ”, the protein production was “failed”.

For “MFIYFPKNYVWSMSTVIAATHGGSIGEIDEFCRPLLDKSSDDADVGTVEFLHAWIGGADKLIKMAEQDLEKNRELSAAKKYYRAALYYLIAERMQEQGHPERLKVYKRYLELAELYRKYKKDDVKRVEIPYQNSHLSAIYAKGKTTDEKQAIVVMMNGLDSTKELMSYCPLADELVERGISVLMVDQPGTGEAIRLQDLRAVYNSEIWASPIVDWLCEQPEIDQHRIAAFGISLGGYYCPRAVAFEPRFCCAAIWGANHDWRAVQHARLKREGENPVPHYWKHVEWVFGAQDQKEFFEIAENMHLNGVLDRIKVPFLVTHGEKDRQIPLKYAYETYDQLINSPDKELLVIDDEMGGVEHSSIDNPLNAGAYIADWLAEHLNGKTSK”, the protein production was “failed”.

With “MNVDARVGVAVDGAQSALNTATTVHSSVVMTQIKPQAKLGTFQNLLAGGIAGAISKTCTAPLARLTILFQLQGMQSEGAVLSRPNLRREASRIINEEGYRAFWKGNLVTVVHRIPYTAVNFYAYEKYNLFFNSNPVVQSFIGNTSGNPIVHFVSGGLAGITAATATYPLDLVRTRLAAQRNAIYYQGIEHTFRTICREEGILGLYKGLGATLLGVGPSLAINFAAYESMKLFWHSHRPNDSDLVVSLVSGGLAGAVSSTDDKLFDAHNYVATYPLDLVRRRMQVEGAGGRARVYNTGLFGTFKHIFKSEGFKGIYRGILPEYYKVVPGVGIVFMTYDALRRLLTSLPD” the protein production was “failed”.

With “MTSHHAIEVTKTVLEVADVAWTAVETYHHHHHHQDENHESTNPISDPRDRELEALRQENRRLRTLLESNLKLFETLAESAAFSHDCPSDLYARLVTMVTSRDFLARLENLRQALSNGTQNQFPFKEPTEDDVKTVEVLIEMDHQEPSWWVLVTDDMVPSNVEEQSAIDNEHYIVVNEEHVIDAVAHFLAKCIMSNPKAKNLKPEELQKLLVQEVTALSKVGKVVDIWHAGKMFYTLSTWGLAFGGLYQARGVLKIAAKGVHATSKVVLRAL” the protein production was “failed”.

In the case of “MSDDEIGDGARAFNQLIQALSLSIETETAVRTFTEMLVSELDVHQLTEQALALLLQHTGADGGAILIEVDGEIRVAASQGIGSAHTLANNDRVRSALRTERRHRVQLPEDLVVDGMLAQFRPKEVIIDPVRHKEVVLGAVVLASGQGFSAEDRNRLDVFERGLALALHNALLYDRLQTLAALDPLEHHHHHH”, the protein production is reported as “failed”.

In the case of “MEIGIIGTGNIGGTLARKLIAAGHQVRVANSKGIHGVQSFADEIGATAVDVYGAVKGADAIILSIPLPALASLPNGFFDDLPETVPLIDTSNYYPGLRDPLIPEIDDGMTESVWVSQQLSHPVIKAFNNILAWSLAELGTPKGSASRLAIAVAGDNATLKQIVMNLVDDTGFDAIDAGSLEESWRQQPSTPAYCCDYDAETMKKGLTAAVRGEAASKRDRLPELFGKLGANPTHEDIVAMNRSLNPLEHHHHHH”, the protein production is reported as “not failed”.
